Experimental data taken from the RNAGym collection of RNA variant scans (doi:10.1073/pnas.2313332121).
Variants at the floor of the assay were thinned out.

B1: TPR 5TU (parent)
chain: GGAUCUUCUCGAUCUAACAAAAAAGACAAAUCUGCCACAAAGCUUGAGAGCAUCUUCGGAUGCAGAGGCGGCAGCCUUCGGUGGCGCGAUAGCGCCAACGUUCUCAACUAUGACACGCAAAACGCGUGCUCCGUUGAAUGGAGUUUAUCAUG

Variants of: B1
Assay: polymerase ribozyme fitness, log enrichment relative to wild type (log ratio); higher = more active; in vitro selection for triplet polymerase activity
Summary of the method: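 Streptavidin-bead capture of gel-excised extended constructs, followed by RT-PCR, closed a single triplicate in vitro selection round. That round began by annealing PCR-built, transcribed mutant libraries of each subunit of a heterodimeric triplet polymerase ribozyme with a biotinylated primer, the partner subunit and triplets, then incubating them frozen at −7 °C. After Illumina sequencing of inputs and outputs, genotypes needed ≥10 input reads and ≥1 read per output. Fitness is the base-2 logarithm of genotype enrichment over wild-type enrichment, using inverse-variance-weighted replicate averages.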

Polymerase ribozyme fitness (log ratio), -2.49:
A23G C76A

Polymerase ribozyme fitness (log ratio), ≤ -4.2:
A24C G74C U90G C99G U127A
A23U A150G
A23G A52G C57U C95A C96G U102G A107G G141A
A23C C43A A52U A119C U135G U139A G140A A142G
A24G C85A U146C
A24C G46A G94U C95A A115C
A24G C69A A91U A138U G143U
A24C A29G C51U C95G C96U C114A U146C
A24G A30U G42U C72U A91G A120C
A24C G86C G143A U148C
A23G C79G
A23U G88U C116U G140U G143U U146G
A23U A26U A41U G50A G65C A91C C103G G128U
A23U A37U A97U U111C
A23C G62C C85G U134A U148C
A24C G88U C95G C96U
A24C A28U A41C U78G A122G U127A
A23C C32A U56A A60G C103A A110G G112C
A24G A52G U55A C85U A150C
A24C U31C U33G U53A U78A G88U U134C
A23U U109A
A23G G46C G50A G92A C118U A142U
A23U A52G C85U A89G A106G G141U U148G
A23G G25C A40C G58A U61A G80C G88C
A24G A97U G140U
A23C U44A U45A G74A A91G
A23C C93U G141U
A24C A47G C79U G94C C125U
A24C C85U A120C U146A
A23C A24C U61G A110U
A24G A39G G67U G83A C85A U104G C105U G136A
A24C A30C A41U A66U U82C G86U G94U C116A
A24C C72U C85G C131G G133U
A24C G50C C96G A110U
A24G C32A U33G G65A G80A A98U G126C U145G A147C
A23C A41U G68U C93U A106G
A23C C35G G58A C95A C99A C149U
A23G A30G A52U C116U C132U
A23U A24C C51U U53A A98U
A23U G68C C76G G80C A89U U148G
A24C A30U A138U U144G
A23C G25A U55A U61G G68A G92U A97U G124A G128C
A23U A52C U55A G81U G84A C99A U127C U145G
A23U G50A A60C A66U C85U C95G A122C
A24C C93U C114U A119G
A23U A30G A41C A47G U53G U56A C75A C93U C108G G133C G136A
A23C U55A C87G C114G G133U G136U
A23G A40G G50U C76A G84C
A23U U55A G128U
A23C C87G A91G C99A C103G
A23U A64C G67A G81C
A23C U44C A64C G92C A97U
A23C G59A G92U U104C A113C C123U G124A
A24C A64C
A23U G50C A122C G141C
A23U A40G U77A G84A U146G
A23G C27G A40U C75U G81C G94C U101A U109A
A23C C114G
A23C G42U A137U
A24C A29C A37U G59A U61G C87A C103G G117U
A23U U56G G58C G74C G88U
A23C C38A C51U U55C A73G G92U C131U A138C
A24G A29C A37G G46U C57U C76U A122U A138G U144G U151C
A24C G68U C75G C76G A110G A121U
A24C G42U U44G U61A G80C A110U
A24G A26U U56A C87G C123A C132G G133U
A22U G94C C95G C96A A122U
A23U A29C C51U G68U C72G G94C G136A A147C

Polymerase ribozyme fitness (log ratio), -3.41:
A23G G59U C95U

Polymerase ribozyme fitness (log ratio), -3.62:
A24C U31A A52G

Polymerase ribozyme fitness (log ratio), -3.86:
A23G G59U C95U A110G
A23G C93U U101A G140U

Polymerase ribozyme fitness (log ratio), 0.472:
A22U U82A

Polymerase ribozyme fitness (log ratio), -4.2:
A23G U130C A138U

Polymerase ribozyme fitness (log ratio), -3.98:
A23G A40C G81A U145C
A23G A24U C27G U55A G92U

Polymerase ribozyme fitness (log ratio), -1.46:
A22U G133C

Polymerase ribozyme fitness (log ratio), -3.92:
A22U G81A A106C G128A U139C

Polymerase ribozyme fitness (log ratio), -3:
A22U U31C C32U

Polymerase ribozyme fitness (log ratio), -3.85:
A23G C38G C95U C114G
A23U U55A

Polymerase ribozyme fitness (log ratio), -3.22:
A22U U56A G92A
